T1: full-length beta-Catenin (Uniprot ID P35222) (Homo sapiens (Human), UniProt P35222 1-781)
T1 construct: also called bCat; B-Catenin
T1 sequence: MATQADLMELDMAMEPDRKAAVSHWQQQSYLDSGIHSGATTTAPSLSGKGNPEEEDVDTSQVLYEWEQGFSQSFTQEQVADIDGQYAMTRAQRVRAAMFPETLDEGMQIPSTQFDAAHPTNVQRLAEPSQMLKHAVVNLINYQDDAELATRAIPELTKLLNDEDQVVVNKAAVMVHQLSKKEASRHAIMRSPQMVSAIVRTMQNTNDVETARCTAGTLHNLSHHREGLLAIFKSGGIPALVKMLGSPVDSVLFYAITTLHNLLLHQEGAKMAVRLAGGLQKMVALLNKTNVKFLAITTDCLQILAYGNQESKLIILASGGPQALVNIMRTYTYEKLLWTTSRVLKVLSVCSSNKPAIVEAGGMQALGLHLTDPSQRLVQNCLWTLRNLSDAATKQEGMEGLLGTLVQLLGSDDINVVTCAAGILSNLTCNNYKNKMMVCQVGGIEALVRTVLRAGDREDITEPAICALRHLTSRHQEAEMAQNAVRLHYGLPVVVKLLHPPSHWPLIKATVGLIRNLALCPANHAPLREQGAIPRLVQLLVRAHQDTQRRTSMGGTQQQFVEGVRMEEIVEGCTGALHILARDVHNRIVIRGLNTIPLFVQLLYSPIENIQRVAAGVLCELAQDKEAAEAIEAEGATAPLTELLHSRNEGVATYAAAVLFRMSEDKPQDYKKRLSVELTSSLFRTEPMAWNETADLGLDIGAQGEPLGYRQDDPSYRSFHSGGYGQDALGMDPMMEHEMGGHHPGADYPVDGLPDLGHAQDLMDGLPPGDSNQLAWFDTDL

T2: B-cat-Halo (beta-catenin HaloTag NanoBRET construct expressed in HEK293 cells) (UniProt P35222 1-781, HaloTag NanoBRET 618 Ligand bound to the HaloTag)
T2 sequence (looked up): T1 sequence

T3: B-cat-Halo (UniProt P35222 1-781)
T3 sequence (looked up): T1 sequence

T4: full-length beta-Catenin (Uniprot ID P35222) (Homo sapiens (Human), UniProt P35222 1-781)
T4 construct: Any tags on the recombinant protein are not described for the FP assay; also called bCat; B-Catenin
T4 sequence: T1 sequence

T5: full-length beta-Catenin (Uniprot ID P35222) (Homo sapiens (Human), UniProt P35222 1-781)
T5 construct: Tags are not described; Also used here as the target of the DLD1 TCF reporter read-out (endogenous beta-catenin in DLD1 cells); also called bCat; B-Catenin
T5 sequence: T1 sequence

B1: I-355 (peptide)
peptide: XDAXDDAAFVXAWQ
modifications: not fully specified; N-terminal Ac; PL3 at 1, B5 at 4, S8 at 11 (staples 1-4 and 4-11 by olefin metathesis); C-terminal NH2
notes: Stapled peptide; also called Ac-PL3-Asp-Ala-B5-Asp-Asp-Ala-Ala-Phe-Val-S8-Ala-Trp-Gln-NH2
B2: I-358 (peptide)
peptide: XDAXDDAAFVXFAQ
modifications: not fully specified; N-terminal Ac; PL3 at 1, B5 at 4, S8 at 11 (staples 1-4 and 4-11 by olefin metathesis); C-terminal NH2
notes: Stapled peptide; also called Ac-PL3-Asp-Ala-B5-Asp-Asp-Ala-Ala-Phe-Val-S8-Phe-Ala-Gln-NH2
B3: I-359 (peptide)
peptide: Ac-[αAllylPro]DA[B5(19)]DDAAFV[S8][Phe(4-CN)][Bta]Q-NH2
modifications: staple 1-4, 4-11
notes: Stapled peptide; also called Ac-PL3-Asp-Ala-B5-Asp-Asp-Ala-Ala-Phe-Val-S8-4CNF-BztA-Gln-NH2
B4: I-354 (peptide)
peptide: XDAXDDAAAVXFWQ
modifications: not fully specified; N-terminal Ac; PL3 at 1, B5 at 4, S8 at 11 (staples 1-4 and 4-11 by olefin metathesis); C-terminal NH2
notes: Stapled peptide; also called Ac-PL3-Asp-Ala-B5-Asp-Asp-Ala-Ala-Ala-Val-S8-Phe-Trp-Gln-NH2
B5: I-357 (peptide)
peptide: XDAXDDAAFVXFAQ
modifications: not fully specified; N-terminal Ac; PL3 at 1, B5 at 4, S8 at 11 (staples 1-4 and 4-11 by olefin metathesis); C-terminal NH2
notes: as for B2
B6: I-356 (peptide)
peptide: XDAXDDAAFVXAWQ
modifications: not fully specified; N-terminal Ac; PL3 at 1, B5 at 4, S8 at 11 (staples 1-4 and 4-11 by olefin metathesis); C-terminal NH2
notes: as for B1
B7: I-1526: Ac-PL3-Asp-Ser-B5-Asp-Glu-Ala-Ala-Phe-Gln-S8-Phe-BztA-Gln-NH2 (peptide)
peptide: Ac-[αAllylPro]DS[B5(5)]DEAAFQ[S8]F[Bta]Q-NH2
modifications: staple 1-4, 4-11; also: staple isomer, earlier eluting HPLC peak
notes: Stapled peptide composition; It has the same description as I-1527 and is the staple isomer composition of the earlier eluting HPLC peak
B8: I-1528: Ac-PL3-Asp-Ser-B5-Asp-Glu-Ala-Ala-Phe-Leu-S8-Phe-BztA-Gln-NH2 (peptide)
peptide: Ac-[αAllylPro]DS[B5(5)]DEAAFL[S8]F[Bta]Q-NH2
modifications: staple 1-4, 4-11
notes: Stapled peptide composition; Staple olefins are retained
B9: I-1529: Ac-PL3-Asp-Ser-B5-Asp-Glu-Ala-Ala-Phe-Hse-S8-Phe-BztA-Gln-NH2 (peptide)
peptide: Ac-[αAllylPro]DS[B5(15)]DEAAF[hSer][S8]F[Bta]Q-NH2
modifications: staple 1-4, 4-11; not fully specified; printed as Ac-PL3-Asp-Ser-B5-Asp-Glu-Ala-Ala-Phe-Hse-S8-Phe-BztA-Gln-NH2
notes: Stapled peptide composition
B10: I-1041 (peptide)
peptide: Ac-[αAllylPro]DF[B5(16)]DDAAFN[PyrS2″][Phe(2-Cl)][Bta]Q-NH2
modifications: staple 1-4, 4-11
notes: also called Ac-PL3-Asp-Phe-B5-Asp-Asp-Ala-Ala-Phe-Asn-PyrS2-2C1F-BztA-Gln-NH2
B11: I-1043 (peptide)
peptide: Ac-[αAllylPro]DF[B5(16)]DDAAFT[PyrS2″][Phe(2-Cl)][Bta]Q-NH2
modifications: staple 1-4, 4-11
notes: also called Ac-PL3-Asp-Phe-B5-Asp-Asp-Ala-Ala-Phe-Thr-PyrS2-2C1F-BztA-Gln-NH2
B12: I-1051 (peptide)
peptide: Ac-[αAllylPro]DF[B5(4)]DDAAFS[PyrS2][Phe(2-Cl)][Bta]S-NH2
modifications: staple 1-4, 4-11
notes: also called Ac-PL3-Asp-Phe-B5-Asp-Asp-Ala-Ala-Phe-Ser-PyrS2-2C1F-BztA-Ser-NH2
B13: I-1045 (peptide)
peptide: Ac-[αAllylPro]DF[B5(16)]DDAAFS[PyrS2″][Phe(2-Cl)][Bta]Q-NH2
modifications: staple 1-4, 4-11
notes: also called Ac-PL3-Asp-Phe-B5-Asp-Asp-Ala-Ala-Phe-Ser-PyrS2-2C1F-BztA-Gln-NH2

Starred links: 1 amine or outer side, 2 acyl side, 3 side chain; linkers in the order of their positions; H or OH if unused. Positions of bridges follow the written chain, without caps; N, C: chain ends. Non-standard residues stand in square brackets, D forms with d. Primed or numbered codes have the meaning given here. B5(15) = 2-amino-2-(pent-4-en-1-yl)hept-6-enoic acid (2,2-bis(4-pentenyl)glycine), stitching residue bearing two staples, C=CCCCC(CCCC=C)(N[*:1])C(=O)[*:2]; PyrS2″ = (S)-3-amino-1-((pent-4-en-1-yloxy)carbonyl)pyrrolidine-3-carboxylic acid (stapling residue), C=CCCCOC(=O)N1CC[C@@](N[*:1])(C(=O)[*:2])C1; B5(16) = 2-amino-2-(pent-4-en-1-yl)hept-6-enoic acid = 2,2-bis(4-pentenyl)glycine (stitching residue), C=CCCCC(CCCC=C)(N[*:1])C(=O)[*:2]; B5(4) = 2,2-bis(4-pentenyl)glycine = 2-amino-2-(pent-4-en-1-yl)hept-6-enoic acid (stitching residue), C=CCCCC(CCCC=C)(N[*:1])C(=O)[*:2]; B5(5) = 2,2-bis(4-pentenyl)glycine, 2-amino-2-(pent-4-en-1-yl)hept-6-enoic acid (stitching residue), C=CCCCC(CCCC=C)(N[*:1])C(=O)[*:2]; PyrS2 = (S)-3-amino-1-((pent-4-en-1-yloxy)carbonyl)pyrrolidine-3-carboxylic acid, C=CCCCOC(=O)N1CC[C@@](N[*:1])(C(=O)[*:2])C1; B5(19) = 2-amino-2-(pent-4-en-1-yl)hept-6-enoic acid (bis(4-pentenyl)glycine), C=CCCCC(CCCC=C)(N[*:1])C(=O)[*:2]; Phe(4-CN) = N#Cc1ccc(C[C@H](N)C(=O)O)cc1; Phe(2-Cl) = N[C@@H](Cc1ccccc1Cl)C(=O)O; Bta = N[C@@H](Cc1csc2ccccc12)C(=O)O; αAllylPro = C=CC[C@@]1(C(=O)O)CCCN1; S8 = C=CCCCCCC[C@](C)(N)C(=O)O; hSer = N[C@@H](CCO)C(=O)O

One experiment has as its target T1, full-length beta-Catenin (Uniprot ID …). Briefly: fluorescence polarization competition; peptide titrated against 10 nM full-length beta-catenin + 10 nM 5FAM-TCF4(10-53). As to the method:
(§1) The plate was incubated protected from light for 60 minutes at 20° C. prior to read. Reads were performed on a CLARIOstar plate reader (BMG Labtech) in duplicate, and data were fitted to a 1:1 binding model with hill slope using an in-house script. All provided concentrations are final concentrations.
A general note: Polarisation of emitted light reports the rotation of a fluorescent probe.
As a reminder, the IC50 is the concentration at which inhibition is half-maximal. Regarding B1, the IC50 stood at 5 µM.

Turning to B2, the IC50 was found to be 5 µM.

For B3, the IC50 turned out to be 5 µM.

For B4, the IC50 was 5 µM.

Take B5: the IC50 was 5 µM.

As to B6, the IC50 turned out to be 5 µM.

The next experiment deals with T2, B-cat-Halo (beta-catenin HaloTag …). Briefly: cell-based or functional assay.
For the molecule B7, the “NanoBRET Abs IC50” value is more than 20 µM.

For the molecule B8, the “NanoBRET Abs IC50” value was 31.4 µM.

On to B9, for which the “NanoBRET Abs IC50” value was more than 20 µM.

Another experiment deals with T3, B-cat-Halo. Briefly: cell-based or functional assay.
As to B10, the “NanoBRET Abs IC50” value was more than 20 µM.

For the molecule B11, the “NanoBRET Abs IC50” value was more than 20 µM.

With B12, the “NanoBRET Abs IC50” value was more than 20 µM.

In the case of B13, the “NanoBRET Abs IC50” value is 23.9 µM.

The target of the next experiment is T4, full-length beta-Catenin (Uniprot ID …). Briefly: fluorescence polarization competition; displacement of 5FAM-TCF4(10-53) from full-length beta-catenin. The essentials: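 Fluorescence polarization was read in duplicate after the plate sat 60 minutes at 20° C. shielded from light. Values come from fitting to a 1:1 binding model with hill slope.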
Molecule B7 registered an IC50 of 0.084 µM.

The molecule B8 displayed an IC50 of 0.102 µM.

Molecule B9 came in with an IC50 of 0.126 µM.

The target of a further experiment is T5, full-length beta-Catenin (Uniprot ID …). Briefly: fluorescence polarization competition; full-length beta-catenin with 5FAM-TCF4(10-53) probe, peptide titrated. As to the method:
as §1
As to B10, the IC50 came out at 0.008 µM.

Molecule B11 showed an IC50 of 0.012 µM.

For B12, the IC50 came to 0.014 µM.

Turning to B13, the IC50 was 0.005 µM.

For the origin of these results see patent US20240116985A1 (published 2024).
